In US20240182556A1 (OPSIDIO, published 2024):

T1: PE9413, C-terminal biotinylated peptide mapping on Exon6 of the SCF molecule (SCF248) (C-terminal biotin)
T1 construct: also called C-terminal biotinylated PE9413; C-ter PE9413
T1 peptide: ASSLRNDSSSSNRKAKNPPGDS

T2: N-terminal biotinylated PE9413 (not fully specified; N-terminal biotin)
T2 construct: also called PE9411; N-ter PE9413
T2 peptide: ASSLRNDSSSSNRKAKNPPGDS


Experiments:
[1] = target: T1, PE9413, C-terminal biotinylated peptide …; experiment: yeast-displayed scFv, flow cytometry titration of biotinylated peptide (FIG. 16D)
Method: Yeast display methods were conducted as described by Ferrara et al. Briefly, cells were induced in induction media overnight at 20° C. 10⁵ induced cells were washed twice with wash buffer (PBS supplemented with 0.5% BSA) and incubated at room temperature with the biotinylated antigen diluted in PBS. To assess binding of the scFv, a C-terminal biotinylated peptide mapping on Exon6 of the SCF molecule was used (referred to herein as “PE9413”). […] The induced yeast population was stained with biotinylated PE9413 at different concentrations ranging from 50 nM to 2 μM (0 nM, 50 nM, 100 nM, 250 nM, 500 nM, 750 nM, 1000 nM, or 2000 nM). Volumes and incubation times were carefully adjusted according to parameters described in [3]. After the incubation with the target peptide, the yeast cells were washed twice with cold wash buffer and subsequently incubated at 4° C. for an additional 30 minutes with fluorescently labelled streptavidin (Streptavidin-AlexaFlu633), to detect binding of the biotinylated PE9413, and with the labelled anti-SV5 (anti-SV5-PE), to detect the scFv display levels on yeast cells. Following 2 washes with cold yeast wash buffer, the cells were resuspended in cold PBS and analyzed in the flow cytometer (FIG. 1).
The FACS sorted population was sorted kinetically to find clones with an improved Koff compared to the parenteral scFv. […]

[2] = target: T1, PE9413, C-terminal biotinylated peptide …; experiment: yeast-displayed scFv, flow cytometry titration of biotinylated peptide
[3] = target: T1, PE9413, C-terminal biotinylated peptide …; experiment: as above
Method: The binding of the selected 48 clones described above to 170 nM of C-terminal biotinylated PE9413 was evaluated. The 24 clones with the highest binding signal were further evaluated for binding affinity. Each clone was incubated with increasing amounts of biotinylated PE9413, and stained with a fluorescently labeled anti-streptavidin antibody. Binding of the clone to PE9413 was analyzed by flow cytometry. A plot of concentration of PE9413 versus the median fluorescent signal of the yeast cell population that bound to PE9413 was used to estimate the binding affinity (KD) of each clone to C-terminal biotinylated PE9413. […]

[4] = target: T2, N-terminal biotinylated PE9413; experiment: yeast-displayed scFv, flow cytometry titration of N-terminal biotinylated peptide
Method: The affinity of the 12 best clones for the N-terminal biotinylated target peptide […] was also evaluated. Each clone was incubated with increasing amounts of N-terminal biotinylated PE9413, and stained with a fluorescently labeled anti-streptavidin antibody. Binding of the clone to N-terminal biotinylated PE9413 was analyzed by flow cytometry. A plot of concentration of PE9413 versus the median fluorescent signal of the yeast cell population that bound to PE9413 was used to estimate the binding affinity (KD) of each clone to N-terminal biotinylated PE9413. The tested clones were confirmed to have improved affinities over the parental antibody 5H10 against the target sequence PE9413, regardless of the biotinylation modification, as reported in Table A3 and FIG. 12.

[5] = target: T1, PE9413, C-terminal biotinylated peptide …; experiment: yeast-displayed scFv, flow cytometry titration of biotinylated peptide
Method: The binding of the selected 48 clones described above to 170 nM of C-terminal biotinylated PE9413 was evaluated. The 24 clones with the highest binding signal were further evaluated for binding affinity. Each clone was incubated with increasing amounts of biotinylated PE9413, and stained with a fluorescently labeled anti-streptavidin antibody. Binding of the clone to PE9413 was analyzed by flow cytometry. A plot of concentration of PE9413 versus the median fluorescent signal of the yeast cell population that bound to PE9413 was used to estimate the binding affinity (KD) of each clone to C-terminal biotinylated PE9413.

Binder	Kd [1] [nM]	Kd [2] [nM]	Kd [3] [nM]	Kd [4] [nM]	Kd [5] [nM]
parental humanized 5H10 VK3/VH1 scFv (VH-linker-VL-SV5tag) displayed on yeast (scFv, V domains shown, also called parental scFv; parental antibody; not shown: linker; SV5 tag) VH: QVQLVQSGAELKKPGSSVKISCKSSGYAFSSYWMNWVKQRPGQGLEWIGQIYPGDGDTHYNGKFKGKATLTADKSTSTAYMELSSLTSEDSAVYFCSSSNWVGSYWGQGTLVTVSS VL: DVVMTQSPLSLPVTLGQPASISCKSSQSLLESDGKTYLNWLQQRPGQSPRRLIYLVSRLDSGVPDRFSGSGSGTDFTLKISRVEAEDVGVYYCWQGTHLPQTFGGGTKVEIK	232	174			
B124P scFv displayed on yeast (scFv, V domains shown, Aga2-anchored, VH-VL orientation; not shown: linker; SV5 tag) VH: QVQLVQSGAELKKPGSSVKISCKSSGYAFSSNWMNWVKQRPGQGLEWIGQIYPEDGDTHYNDKFKGKATLTADKSTSTAYMELSSLTSEDSAVYFCSSSNWVGSYWGQGTLVTVSS VL: DVVMTQSPLSLPVTLGQPASISCKSSQSLLEQDGNTYLNWLQQRPGQSPRRLIYLVDRLDSGVPDRFSGSGSGTDFTLKISRVEAEDVGVYYCWQGTDLPQTFGGGTKVEIK			3.82	5	3.82
D44P scFv displayed on yeast (scFv, V domains shown, Aga2-anchored, VH-VL orientation; not shown: linker; SV5 tag) VH: QVQLVQSGAELKKPGSSVKISCKSSGYAFSSQWMNWVKQRPGQGLEWIGQIYPEDGDIHYNGKFKGKATLTADKSTSTAYMELSSLTSEDSAVYFCSSSNWVGSYWGQGTLVTVSS VL: DVVMTQSPLSLPVTLGQPASISCKSSQSLLEEDGNTYLNWLQQRPGQSPRRLIYLVDRLDSGVPDRFSGSGSGTDFTLKISRVEAEDVGVYYCWQGSHLPQTFGGGTKVEIK			4.18	4.61	4.18
H74P scFv displayed on yeast (scFv, V domains shown, Aga2-anchored, VH-VL orientation; not shown: linker; SV5 tag) VH: QVQLVQSGAELKKPGSSVKISCKSSGYAFSSQWMNWVKQRPGQGLEWIGQIYPEDGDTHYNGKFKGKATLTADKSTSTAYMELSSLTSEDSAVYFCSSSNWVGSYWGQGTLVTVSS VL: DVVMTQSPLSLPVTLGQPASISCKSSQSLLEEDGNTYLNWLQQRPGQSPRRLIYLVDRLDLGVPDRFSGSGSGTDFTLKISRVEAEDVGVYYCWQGSHLPQTFGGGTKVEIK			3.84	4.9	3.84

Further binders by falling Kd [3], results first:

Kd [1] [nM]	Kd [2] [nM]	Kd [3] [nM]	Kd [4] [nM]	Kd [5] [nM]	Binder
		4.39	5.38	4.39	D14P scFv displayed on yeast (scFv, V domains shown, Aga2-anchored, VH-VL orientation; not shown: linker; SV5 tag) VH: QVQLVQSGAELKKPGSSVKISCKSSGYAFSSQWMNWVKQRPGQGLEWIGQIYPGDDDTHYNDKFKGKATLTADKSTSTAYMELSSLTSEDSAVYFCSSSNWVGSYWGQGTLVTVSS VL: DVVMTQSPLSLPVTLGQPASISCKSSQSLLESDGNTYLNWLQQRPGQSPRRLIYLVDRLDLGVPDRFSGSGSGTDFTLKISRVEAEDVGVYYCWQGTDLPQTFGGGTKVEIK
		4.09	5.66	4.09	F54P scFv displayed on yeast (scFv, V domains shown, Aga2-anchored, VH-VL orientation; not shown: linker; SV5 tag) VH: QVQLVQSGAELKKPGSSVKISCKSSGYAFSSQWMNWVKQRPGQGLEWIGQIYPEDGDTHMNGKFKTKATLTADKSTSTAYMELSSLTSEDSAVYFCSSSNWVGSYWGQGTLVTVSS VL: DVVMTQSPLSLPVTLGQPASISCKSSQSLLEEDGNTYLNWLQQRPGQSPRRLIYLVDRLDSGVPDRFSGSGSGTDFTLKISRVEAEDVGVYYCWQGTDLPQTFGGGTKVEIK
		4.08	5.3	4.08	H83P scFv displayed on yeast (scFv, V domains shown, Aga2-anchored, VH-VL orientation; not shown: linker; SV5 tag) VH: QVQLVQSGAELKKPGSSVKISCKSSGYAFSSQWMNWVKQRPGQGLEWIGQIYPGDGDIHYNDKFKGKATLTADKSTSTAYMELSSLTSEDSAVYFCSSSNWVGSYWGQGTLVTVSS VL: DVVMTQSPLSLPVTLGQPASISCKSSQSLLESDGNTYLNWLQQRPGQSPRRLIYLVDRLDSGVPDRFSGSGSGTDFTLKISRVEAEDVGVYYCWQGTDLPQTFGGGTKVEIK
